Measured values taken from the supplement of paper PMC12042874.
± gives the uncertainty stated by the source.

Experiment: amyloid nucleation score (Sup35N fusion, yeast selection) (log enrichment); library NNK2; higher = more nucleation; inactive = no reads after selection
How it was run: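 The nucleation score is a DiMSum log enrichment of output over input reads, centred on the mode score of non-aggregating sequences. Sequences under 100 input reads were excluded, and reads came from Illumina sequencing of plasmid inserts. Psi-negative yeast expressing Sup35N fused to peptides of 20 random codons were induced with 100 μM copper sulfate for 24 hours and grown 7 days at 30°C on medium lacking adenine and uracil. Random libraries had three technical output replicates.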

**Q.** For LRRVSGRLDSIWSWCVRCNE, which amyloid nucleation score is on record?
**A.** -1.02 ± 1.1

**Q.** For RRLSNRRWLIFCQWSFHYGV, which amyloid nucleation score is on record?
**A.** 0.242 ± 0.61

**Q.** For VGDCITAWRSWNNCFVGYGP, which amyloid nucleation score is on record?
**A.** 3.2 ± 0.053

**Q.** For NMSLHRAILGFKAATIMRSL, which amyloid nucleation score is on record?
**A.** -0.821 ± 1.1

**Q.** Which amyloid nucleation score does the source give for DRICRVDIYDVRDQSYTFSG here?
**A.** -0.279 ± 0.29

**Q.** Which amyloid nucleation score does the source give for FQYYDKYLYWFFVNN here?
**A.** -2.12 ± 0.73

**Q.** Which amyloid nucleation score does the source give for GSNIEGY here?
**A.** -0.512 ± 0.46

**Q.** Which amyloid nucleation score does the source give for WMNFCPDVGHANGGVPNRLG here?
**A.** 0.583 ± 0.37

**Q.** With FLDMSSRIMRARRPNCFFWC as the substance, how does the amyloid nucleation score read?
**A.** -0.022 ± 0.31

**Q.** For SLRDARGRSYYRFNIISVML, which amyloid nucleation score is on record?
**A.** 5.591 ± 0.033

**Q.** For SVKQLTPD, which amyloid nucleation score is on record?
**A.** -0.319 ± 0.6

**Q.** For SMSSNVRTYNQFTHL, which amyloid nucleation score is on record?
**A.** 0.716 ± 0.53

**Q.** For LHHYAFFSHM, which amyloid nucleation score is on record?
**A.** inactive

**Q.** Which amyloid nucleation score does the source give for FSNISSSMKNKSVRGCECGR here?
**A.** -1.04 ± 0.33

**Q.** For PSYMFITVLYLQTEFGFDDT, which amyloid nucleation score is on record?
**A.** 3.82 ± 0.074

**Q.** With NLPIGLCSAGRFLGNNL as the substance, how does the amyloid nucleation score read?
**A.** 0.123 ± 1

**Q.** Which amyloid nucleation score does the source give for IGAMN here?
**A.** 0.586 ± 0.44

**Q.** For WCVRELLE, which amyloid nucleation score is on record?
**A.** -0.077 ± 0.39

**Q.** For FSITCADFICYSLVGGERTP, which amyloid nucleation score is on record?
**A.** 9.559 ± 0.066

**Q.** For SWEKQ, which amyloid nucleation score is on record?
**A.** inactive

**Q.** For MNFWILFQNLQHRCVQVTGR, which amyloid nucleation score is on record?
**A.** 3.64 ± 0.068

**Q.** For RGINVGGWLSLGFTGAVHSL, which amyloid nucleation score is on record?
**A.** 3.4 ± 0.12

**Q.** Which amyloid nucleation score does the source give for GNRSTVLRSNLDVYLQDGTV here?
**A.** 1.51 ± 0.32

**Q.** With NEEWSFCKS as the substance, how does the amyloid nucleation score read?
**A.** -0.165 ± 1

**Q.** With VGIFLKSYV as the substance, how does the amyloid nucleation score read?
**A.** -1.32 ± 1

**Q.** With INVPCFRLKSSVGVISLQGT as the substance, how does the amyloid nucleation score read?
**A.** 0.205 ± 0.26

**Q.** For LFIEGNVSWGYACLHIRSVG, which amyloid nucleation score is on record?
**A.** 0.039 ± 0.79

**Q.** Which amyloid nucleation score does the source give for GIIISRSNKLFFVKCCNN here?
**A.** 1.7 ± 0.079

**Q.** With HYGNSWY as the substance, how does the amyloid nucleation score read?
**A.** 0.958 ± 0.48

**Q.** Which amyloid nucleation score does the source give for LTLLHFRREDTHCSGTGTPC here?
**A.** 1 ± 0.2

**Q.** With ASSALHRVMVLAVTFFRHSS as the substance, how does the amyloid nucleation score read?
**A.** 0.839 ± 0.41

**Q.** Which amyloid nucleation score does the source give for MGLWLDYDTHCYQNVVFKRT here?
**A.** 2.41 ± 0.091

**Q.** Which amyloid nucleation score does the source give for NSNGTFGQCLVM here?
**A.** -0.293 ± 0.5

**Q.** For WTWVLMNIL, which amyloid nucleation score is on record?
**A.** -1.76 ± 0.64

**Q.** With FCCARILVNVSCVGATCGMC as the substance, how does the amyloid nucleation score read?
**A.** 8.258 ± 0.043

**Q.** Which amyloid nucleation score does the source give for IANYSFELFII here?
**A.** 2.87 ± 0.1

**Q.** For ELFTLGLEGALEVNELKLKY, which amyloid nucleation score is on record?
**A.** 0.782 ± 0.18

**Q.** For RNGLILCLGEVVMSSMESVT, which amyloid nucleation score is on record?
**A.** -0.646 ± 0.61

**Q.** With ENQPVELSTTRDTRAGMSDT as the substance, how does the amyloid nucleation score read?
**A.** inactive

**Q.** For FTCTGRRVYAQLKNVFIFVL, which amyloid nucleation score is on record?
**A.** 1.92 ± 0.19

**Q.** With FFISALANR as the substance, how does the amyloid nucleation score read?
**A.** inactive

**Q.** For FMYRDLYRFMYCVVCAQFFH, which amyloid nucleation score is on record?
**A.** 4.95 ± 0.05

**Q.** Which amyloid nucleation score does the source give for VVMVVCMV here?
**A.** 0.36 ± 0.62

**Q.** Which amyloid nucleation score does the source give for YFYRRVCGINAGPQPCLEYV here?
**A.** -1.27 ± 0.54

**Q.** Which amyloid nucleation score does the source give for AYPVES here?
**A.** 1.19 ± 0.23

**Q.** With RYSFD as the substance, how does the amyloid nucleation score read?
**A.** -0.588 ± 1.1

**Q.** Which amyloid nucleation score does the source give for AMVLFDGNVLWIHDRSCRRI here?
**A.** 0.862 ± 0.53

**Q.** With IIENDICHWSDICMEDLMDW as the substance, how does the amyloid nucleation score read?
**A.** 0.186 ± 0.54

**Q.** For FKAYHSGKWTYGHITQRGRI, which amyloid nucleation score is on record?
**A.** inactive

**Q.** Which amyloid nucleation score does the source give for VSGRDHTNNTGLYAWLHFCY here?
**A.** -0.493 ± 0.63

**Q.** Which amyloid nucleation score does the source give for IIVSATSEGSLRRIRMKMGW here?
**A.** 4.27 ± 0.11

**Q.** For TLNVRIAS, which amyloid nucleation score is on record?
**A.** -0.124 ± 0.62

**Q.** With LFLGYMSLCVVYVLAFGRFE as the substance, how does the amyloid nucleation score read?
**A.** 3.79 ± 0.043

**Q.** For CVCSVYAGNFCLIVLVWLMV, which amyloid nucleation score is on record?
**A.** 0.433 ± 0.74

**Q.** Which amyloid nucleation score does the source give for YWLYMVAHAPKSFIE here?
**A.** 0.509 ± 0.8

**Q.** Which amyloid nucleation score does the source give for RLLNTAVLVANESNQNARDR here?
**A.** -0.245 ± 0.29

**Q.** With FYYYLFFLAIISCTGYLALS as the substance, how does the amyloid nucleation score read?
**A.** 0.286 ± 0.42

**Q.** For LIIDQVIMNGINVPYTYLIY, which amyloid nucleation score is on record?
**A.** 4.15 ± 0.056

**Q.** With NDWLSHGR as the substance, how does the amyloid nucleation score read?
**A.** 4.31 ± 0.054

**Q.** With KRLCYVSYWIYSYSRDGELK as the substance, how does the amyloid nucleation score read?
**A.** -1.23 ± 1.1

**Q.** Which amyloid nucleation score does the source give for VRSVCRGTHFSK here?
**A.** 0.711 ± 0.42

**Q.** For TYVYKYLFWSIPCMA, which amyloid nucleation score is on record?
**A.** 0.715 ± 0.66

**Q.** For AVAASLMFYVCFITADIADM, which amyloid nucleation score is on record?
**A.** 0.859 ± 0.74

**Q.** Which amyloid nucleation score does the source give for NMYFEVALFT here?
**A.** -1.22 ± 0.64
